Results: the supplement of paper PMC7125110
± gives the standard error. This sample holds only a part of the variants without activity.

B1: glmS ribozyme (parent)
chain: AUAAAAGCGCCAGAACUACAGAAAUGUAGUUGACGAGGAGGAGGUUUAUCGAAUUUUCGGCGGAUGCCUCCAAA

Assays:
Conditions in all cases: with glucosamine-6-phosphate
glucosamine-6-phosphate [1] = variants of: B1; assay: self-cleavage kobs at 40 uM GlcN6P; higher = faster cleavage; RNA array
Procedure, shortened: (§1)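 Tiles bearing barcoded ribozyme variants, transcribed in situ by E. coli RNA polymerase on sequenced MiSeq chips, were imaged over ~14 h at 37 °C using a hybridised Cy3 probe. Glucosamine-6-phosphate was supplied at 40 μM to 10 mM in HEPES/KCl/Mg(OAc)2 buffer. kobs came from one- or two-exponential decay fits to normalised per-tile medians, and weighted Michaelis–Menten fits then provided kcat and KM.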

glucosamine-6-phosphate [2] = variants of: B1; assay: self-cleavage kobs at 160 uM GlcN6P; higher = faster cleavage; RNA array
Procedure, shortened: as §1

glucosamine-6-phosphate [3] = variants of: B1; assay: self-cleavage kobs at 640 uM GlcN6P; higher = faster cleavage; RNA array
Procedure, shortened: as §1

glucosamine-6-phosphate [4] = variants of: B1; assay: self-cleavage kobs at 2500 uM GlcN6P; higher = faster cleavage; RNA array
Procedure, shortened: as §1

glucosamine-6-phosphate [5] = variants of: B1; assay: self-cleavage kobs at 10000 uM GlcN6P; higher = faster cleavage; RNA array
Procedure, shortened: as §1

A39C C61A
self-cleavage kobs at 40 uM GlcN6P (glucosamine-6-phosphate [1]): < 1e-05 s⁻¹
self-cleavage kobs at 160 uM GlcN6P (glucosamine-6-phosphate [2]): < 1e-05 s⁻¹
self-cleavage kobs at 640 uM GlcN6P (glucosamine-6-phosphate [3]): < 1e-05 s⁻¹
self-cleavage kobs at 2500 uM GlcN6P (glucosamine-6-phosphate [4]): < 1e-05 s⁻¹
self-cleavage kobs at 10000 uM GlcN6P (glucosamine-6-phosphate [5]): < 1e-05 s⁻¹

C16U U30G
self-cleavage kobs at 40 uM GlcN6P (glucosamine-6-phosphate [1]): 4.04e-05 ± 1.4e-05 s⁻¹
self-cleavage kobs at 160 uM GlcN6P (glucosamine-6-phosphate [2]): 6.14e-05 ± 1.5e-05 s⁻¹
self-cleavage kobs at 640 uM GlcN6P (glucosamine-6-phosphate [3]): 0.000244 ± 6.5e-05 s⁻¹
self-cleavage kobs at 2500 uM GlcN6P (glucosamine-6-phosphate [4]): 0.000944 ± 0.00032 s⁻¹
self-cleavage kobs at 10000 uM GlcN6P (glucosamine-6-phosphate [5]): 0.00235 ± 0.00062 s⁻¹

U30A C70U
self-cleavage kobs at 40 uM GlcN6P (glucosamine-6-phosphate [1]): 0.000214 ± 3.6e-05 s⁻¹
self-cleavage kobs at 160 uM GlcN6P (glucosamine-6-phosphate [2]): 0.000386 ± 7.4e-05 s⁻¹
self-cleavage kobs at 640 uM GlcN6P (glucosamine-6-phosphate [3]): 0.000765 ± 0.00011 s⁻¹
self-cleavage kobs at 2500 uM GlcN6P (glucosamine-6-phosphate [4]): 0.00125 ± 0.00027 s⁻¹
self-cleavage kobs at 10000 uM GlcN6P (glucosamine-6-phosphate [5]): 0.00358 ± 0.00063 s⁻¹

G43C A53G
self-cleavage kobs at 40 uM GlcN6P (glucosamine-6-phosphate [1]): < 1e-05 s⁻¹
self-cleavage kobs at 160 uM GlcN6P (glucosamine-6-phosphate [2]): < 1e-05 s⁻¹
self-cleavage kobs at 640 uM GlcN6P (glucosamine-6-phosphate [3]): < 1e-05 s⁻¹

A6C A52U G60U
self-cleavage kobs at 40 uM GlcN6P (glucosamine-6-phosphate [1]): < 1e-05 s⁻¹

A12C A33G U65C
self-cleavage kobs at 40 uM GlcN6P (glucosamine-6-phosphate [1]): < 1e-05 s⁻¹

A15G A52G C58G
self-cleavage kobs at 40 uM GlcN6P (glucosamine-6-phosphate [1]): < 1e-05 s⁻¹
self-cleavage kobs at 10000 uM GlcN6P (glucosamine-6-phosphate [5]): 8.04e-05 ± 2.1e-05 s⁻¹

A6C A36G A52G
self-cleavage kobs at 40 uM GlcN6P (glucosamine-6-phosphate [1]): < 1e-05 s⁻¹
self-cleavage kobs at 2500 uM GlcN6P (glucosamine-6-phosphate [4]): < 1e-05 s⁻¹
self-cleavage kobs at 10000 uM GlcN6P (glucosamine-6-phosphate [5]): < 1e-05 s⁻¹

G7U A52G C68G
self-cleavage kobs at 40 uM GlcN6P (glucosamine-6-phosphate [1]): 0.000127 ± 4.6e-05 s⁻¹
self-cleavage kobs at 10000 uM GlcN6P (glucosamine-6-phosphate [5]): 0.000484 ± 0.00022 s⁻¹

A6G U30C
self-cleavage kobs at 40 uM GlcN6P (glucosamine-6-phosphate [1]): < 1e-05 s⁻¹
self-cleavage kobs at 160 uM GlcN6P (glucosamine-6-phosphate [2]): < 1e-05 s⁻¹

C16U C70U
self-cleavage kobs at 40 uM GlcN6P (glucosamine-6-phosphate [1]): 0.00111 ± 0.00017 s⁻¹
self-cleavage kobs at 160 uM GlcN6P (glucosamine-6-phosphate [2]): 0.000974 ± 0.0002 s⁻¹
self-cleavage kobs at 640 uM GlcN6P (glucosamine-6-phosphate [3]): 0.00284 ± 0.0011 s⁻¹
self-cleavage kobs at 2500 uM GlcN6P (glucosamine-6-phosphate [4]): 0.00209 ± 0.0004 s⁻¹
self-cleavage kobs at 10000 uM GlcN6P (glucosamine-6-phosphate [5]): 0.00694 ± 0.0028 s⁻¹

C11U A15C G62C
self-cleavage kobs at 40 uM GlcN6P (glucosamine-6-phosphate [1]): < 1e-05 s⁻¹
self-cleavage kobs at 10000 uM GlcN6P (glucosamine-6-phosphate [5]): < 1e-05 s⁻¹

C8A G13A U47G G60U
self-cleavage kobs at 40 uM GlcN6P (glucosamine-6-phosphate [1]): < 1e-05 s⁻¹

U56A U65G
self-cleavage kobs at 40 uM GlcN6P (glucosamine-6-phosphate [1]): 3.75e-05 ± 1.4e-05 s⁻¹
self-cleavage kobs at 640 uM GlcN6P (glucosamine-6-phosphate [3]): 0.000348 ± 0.00011 s⁻¹
self-cleavage kobs at 10000 uM GlcN6P (glucosamine-6-phosphate [5]): 0.00196 ± 0.00027 s⁻¹

G29C U56G C70U
self-cleavage kobs at 40 uM GlcN6P (glucosamine-6-phosphate [1]): 6.27e-05 ± 2.2e-05 s⁻¹
self-cleavage kobs at 10000 uM GlcN6P (glucosamine-6-phosphate [5]): 0.00013 ± 3.2e-05 s⁻¹

G9A G41U U56G
self-cleavage kobs at 40 uM GlcN6P (glucosamine-6-phosphate [1]): < 1e-05 s⁻¹
self-cleavage kobs at 160 uM GlcN6P (glucosamine-6-phosphate [2]): < 1e-05 s⁻¹
self-cleavage kobs at 640 uM GlcN6P (glucosamine-6-phosphate [3]): < 1e-05 s⁻¹
self-cleavage kobs at 10000 uM GlcN6P (glucosamine-6-phosphate [5]): < 1e-05 s⁻¹

A42G G43C
self-cleavage kobs at 40 uM GlcN6P (glucosamine-6-phosphate [1]): < 1e-05 s⁻¹
self-cleavage kobs at 640 uM GlcN6P (glucosamine-6-phosphate [3]): < 1e-05 s⁻¹
self-cleavage kobs at 10000 uM GlcN6P (glucosamine-6-phosphate [5]): < 1e-05 s⁻¹

G9C G32C
self-cleavage kobs at 40 uM GlcN6P (glucosamine-6-phosphate [1]): < 1e-05 s⁻¹
self-cleavage kobs at 160 uM GlcN6P (glucosamine-6-phosphate [2]): < 1e-05 s⁻¹
self-cleavage kobs at 640 uM GlcN6P (glucosamine-6-phosphate [3]): < 1e-05 s⁻¹
self-cleavage kobs at 2500 uM GlcN6P (glucosamine-6-phosphate [4]): < 1e-05 s⁻¹
self-cleavage kobs at 10000 uM GlcN6P (glucosamine-6-phosphate [5]): < 1e-05 s⁻¹

G13C G41U C70U
self-cleavage kobs at 40 uM GlcN6P (glucosamine-6-phosphate [1]): < 1e-05 s⁻¹

G9U G32C A42U
self-cleavage kobs at 40 uM GlcN6P (glucosamine-6-phosphate [1]): < 1e-05 s⁻¹
self-cleavage kobs at 640 uM GlcN6P (glucosamine-6-phosphate [3]): < 1e-05 s⁻¹
self-cleavage kobs at 10000 uM GlcN6P (glucosamine-6-phosphate [5]): < 1e-05 s⁻¹

A12U G32A A33U
self-cleavage kobs at 40 uM GlcN6P (glucosamine-6-phosphate [1]): < 1e-05 s⁻¹
self-cleavage kobs at 640 uM GlcN6P (glucosamine-6-phosphate [3]): < 1e-05 s⁻¹

G13U G43C
self-cleavage kobs at 40 uM GlcN6P (glucosamine-6-phosphate [1]): < 1e-05 s⁻¹
self-cleavage kobs at 160 uM GlcN6P (glucosamine-6-phosphate [2]): < 1e-05 s⁻¹
self-cleavage kobs at 640 uM GlcN6P (glucosamine-6-phosphate [3]): < 1e-05 s⁻¹
self-cleavage kobs at 2500 uM GlcN6P (glucosamine-6-phosphate [4]): < 1e-05 s⁻¹
self-cleavage kobs at 10000 uM GlcN6P (glucosamine-6-phosphate [5]): < 1e-05 s⁻¹
